Measured values taken from patent JP2008232916A.

Legend:
[1] = target: T1, 配列番号2のアルファヘリカルペプチド (second helix peptide), displayed on 15 nm gold particles; assay: gold nanoparticle aggregation: 500 nM free SEQ 1 added to mixed SEQ 2 and SEQ 3 particles; the read-out belongs to the three-peptide complex
T1 sequence (peptide): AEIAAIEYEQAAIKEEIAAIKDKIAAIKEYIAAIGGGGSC

[2] = target: 配列番号3のアルファヘリカルペプチド (third helix peptide), displayed on 15 nm gold particles; assay: as above
[3] = target: T2, 配列番号16のアルファヘリカルペプチド (peptide containing the second helix peptide of the heterodimer), displayed on 15 nm gold particles; assay: gold nanoparticle aggregation: 500 nM free SEQ 15 added to SEQ 16 particles, absorption spectrum
T2 sequence (peptide): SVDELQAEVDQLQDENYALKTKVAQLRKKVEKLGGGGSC

[4] = target: T1, 配列番号2のアルファヘリカルペプチド (second helix peptide), displayed on 15 nm gold particles; assay: gold nanoparticle aggregation: 100 µl E. coli lysate supernatant added to 1 ml mixed SEQ 2 and SEQ 3 particles; the read-out belongs to the three-peptide complex
[5] = target: 配列番号3のアルファヘリカルペプチド (third helix peptide), displayed on 15 nm gold particles; assay: as above

## AEIAAIKYKQAAIKNEIAAIKQEIAAIEQMIAAI [配列番号1で示されるアルファヘリカルペプチド (first helix peptide of the heterotrimeric alpha-helical coiled coil)]
[1]
  absorption maximum of the gold colloid after addition (525 nm before): 555 nm
[2]
  absorption maximum of the gold colloid after addition (525 nm before): 555 nm

B1: 配列番号15で示されるペプチド (first helix peptide of a heterodimer, SEQ ID NO 13, fused in tandem to both ends of the linker SEQ ID NO 14) (peptide)
peptide: TVAQLEEKVKTLRAQNYELKSRVQRLREQVAQLAGGGGSGGGGSGGGGSTVAQLEEKVKTLRAQNYELKSRVQRLREQVAQLA
[3]
  absorption maximum of the gold colloid after addition (about 525 nm before): 550 nm

B2: アルカリフォスファターゼ(配列番号5)と配列番号1のアルファヘリックスとの融合ペプチド(配列番号8) (enzyme)
chain: RTPEMPVLENRAAQGDITAPGGARRLTGDQTAALRDSLSDKPAKNIILLIGDGMGDSEITAARNYAEGAGGFFKGIDALPLTGQYTHYALNKKTGKPDYVTDSAASATAWSTGVKTYNGALGVDIHEKDHPTILEMAKASGLATGNVSTAELQDATPAALVAHVTSRKCYGPSATSEKCPGNALEKGGKGSITEQLLNARADVTLGGGAKTFAETATAGEWQGKTLREQAQARGYQLVNDAASLNAVTEANQQKPLLGLFADGNMPVRWLGPKATYHGNIDKPAVTCTPNPQRNDSVPTLAQMTDKAIELLSKNEKGFFLQVEGASIDKQDHAANPCGQIGETVDLDEAVQRALEFAKKDGNTLVIVTADHAHASQIVAPDTKAPGLTQALNTKDGAVMVMSYGNSEEDSQEHTGSQLRIAAYGPHAANVVGLTDQTDLFYTMKAALGLKGGGSGGGSGGGSLVPRGSAEIAAIKYKQAAIKNEIAAIKQEIAAIEQMIAAI
[4]
  absorption maximum of the gold colloid after addition: 555 nm
[5]
  absorption maximum of the gold colloid after addition: 555 nm
